According to patent publication US20250270319A1 (Alector, published 2025):
Like-named read-outs stand apart in the source and are kept apart here.

How the values were obtained:
[1] = molecular target: T1, recombinant human CD33 protein (Sino Biologicals) (human, UniProt P20138 18-259); test: ELISA, plate coated with recombinant CD33
T1 construct: Bought protein; also called recombinant CD33

[2] = molecular target: T1, recombinant human CD33 protein (Sino …); test: BLI (ForteBio), antibody on anti-human Fc sensor, CD33 10 nM
Experimental: Affinity parameters of the antibody variants for human CD33 were measured by BioLayer Interferometry in a ForteBio assay according to standard techniques (Estep et al. (2013) MAbs 5(2): 270-8) and were compared to those of the parental antibody (antibody 6C7H8) and the parental humanized antibody (antibody 6C71H5). Briefly, the antibodies were captured on anti-human Fc Biosensors (Pall ForteBio). Recombinant human CD33 (10 nM, Sino Biologicals) was then bound to the captured anti-CD33 surface (200 s association time, 1200 s dissociation time). Local fitting was used to extract association and dissociation rate constants (kₐ and kd, respectively) for each antibody. Apparent affinity constants (KD) were calculated from the ratio kd/kₐ.

[3] = molecular target: T2, human CD33 on primary human dendritic cells (human, UniProt P20138 18-364); test: cell-based or functional assay
T2 sequence (P20138 18-364): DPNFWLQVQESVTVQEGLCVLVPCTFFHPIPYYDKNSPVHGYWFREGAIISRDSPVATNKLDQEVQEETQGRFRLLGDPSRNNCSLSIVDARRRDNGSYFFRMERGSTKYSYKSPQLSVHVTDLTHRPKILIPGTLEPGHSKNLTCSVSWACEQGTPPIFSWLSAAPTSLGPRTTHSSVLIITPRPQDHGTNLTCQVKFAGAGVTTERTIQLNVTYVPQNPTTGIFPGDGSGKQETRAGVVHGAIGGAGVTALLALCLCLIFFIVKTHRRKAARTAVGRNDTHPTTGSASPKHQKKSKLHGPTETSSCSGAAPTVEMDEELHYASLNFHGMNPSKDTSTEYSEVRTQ

[4] = molecular target: T2, human CD33 on primary human dendritic …; test: cell-based or functional assay; remark: listed apart in the source
[5] = molecular target: T3, recombinant cynomolgus CD33 protein (NovoProtein) (cynomolgus); test: ELISA, plate coated with recombinant CD33
T3 construct: Bought protein; also called cyno CD33
T3 sequence (chain, as listed by the source limits assumed): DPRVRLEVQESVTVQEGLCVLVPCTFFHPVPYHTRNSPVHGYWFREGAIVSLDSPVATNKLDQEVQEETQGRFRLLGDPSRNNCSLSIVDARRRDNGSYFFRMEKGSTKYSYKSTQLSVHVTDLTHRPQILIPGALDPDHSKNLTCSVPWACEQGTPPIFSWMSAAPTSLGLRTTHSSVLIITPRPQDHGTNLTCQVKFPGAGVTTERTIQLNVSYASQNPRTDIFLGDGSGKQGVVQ

T1 sequence (P20138 18-259 limits assumed): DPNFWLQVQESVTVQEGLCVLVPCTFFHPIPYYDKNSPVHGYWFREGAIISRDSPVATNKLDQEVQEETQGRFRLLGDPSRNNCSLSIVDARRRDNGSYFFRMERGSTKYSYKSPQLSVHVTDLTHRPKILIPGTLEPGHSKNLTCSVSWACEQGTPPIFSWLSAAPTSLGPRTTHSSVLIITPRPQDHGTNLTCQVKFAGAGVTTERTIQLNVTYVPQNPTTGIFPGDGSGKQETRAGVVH

B1: anti-CD33 antibody 6C7H21 (antibody, V domains shown)
VH: EVQLVESGGGLVQPGGSLRLSCAGSGFTFSNYQMNWVRQAPGKGLEWVAEIRLKSNNYVTNYAASVKGRFTISRDDSKNSVYLQMNSLKTEDTGVYYCTRAGYYVPFAYWGQGTLVTVSS
VL: QLVLTQSPSASASLGASVKLTCTLSSQHSTYTIEWYQQQPEKGPRYLMELKKEGSHSTGDGIPDRFSGSSSGAERYLTISSLQSEDEADYYCGVGDTIKEQFVYVFGGGTKLTVL
notes: VH/VL only
EC50 [1]: 0.16 nM | Kd [2]: 0.528 nM | koff [2]: 0.000263 s⁻¹ | kon [2]: 498000 M⁻¹ s⁻¹ | Fold increase in potency compared to 6C7H5 [3]: 1.2 fold | Maximal reduction in CD33 (% remaining) [3]: 28.3 % remaining | Receptor downregulation, (EC50) (pM) [3]: 34.7 pM

B2: anti-CD33 antibody 6C7H32 (antibody, V domains shown)
VH: EVQLVESGGGLVQPGGSLRLSCAASGSTFSEYDMLWVRQAPGKGLEWVGEIRLKSNNYVTNYAASVKGRFTISRDDSKNSVYLQMNSLKTEDTGVYYCTRAGYYVPFAYWGQGTLVTVSS
VL: QLMLTQSPSASASLGASVKLTCTLSSQHSTYTIEWYQQQPGKGPRYLMELKKEGSHSTGDGIPDRFSGSSSGAERYLTISSLQSEDEADYYCGVGHTIKEQFVYEFGGGTKLTVL
notes: VH/VL only
EC50 [1]: 0.2 nM | Fold increase in potency compared to 6C7H5 [4]: 0.9 fold | Receptor downregulation, (EC50) (pM) [4]: 47.2 pM

B3: anti-CD33 antibody 6C7H35 (antibody, V domains shown)
VH: EVQLVESGGGLVQPGGSLRLSCAASGFTFSEYAMLWVRQAPGKGLEWVGEIRLKSNNYVTNYAASVKGRFTISRDDSKNSVYLQMNSLKTEDTGVYYCTRAGYYVPFTYWGQGTLVTVSS
VL: QPVLTQSPSASASLGASVKLTCTLSSQHSTYTIEWYQQQPEKGPRYLMELKKEGSHSTGDGIPDRFSGSSSGAERYLTISSLQSEDEADYYCGVGVTIKEQFVYVFGGGTKLTVL
notes: VH/VL only
EC50 [1]: 0.21 nM | Fold increase in potency compared to 6C7H5 [4]: 0.8 fold | Receptor downregulation, (EC50) (pM) [4]: 51 pM

B4: anti-CD33 antibody 6C7H34 (antibody, V domains shown)
VH: EVQLVESGGGLVQPGGSLRLSCAASGSTFSEYDMLWVRQAPGKGLEWVGEIRLKSNNYVTNYAASVKGRFTISRDDSKNSVYLQMNSLKTEDTGVYYCTRAGYYVPFAYWGQGTLVTVSS
VL: QPMLTQSPSASASLGASVKLTCTLSSQHSTYTIEWYQQQPGKGPRYLMELKKEGSHSTGDGIPDRFSGSSSGAERYLTISSLQSEDEADYYCGVGLTIKEQFVYVFGGGTKLTVL
notes: VH/VL only
EC50 [1]: 0.17 nM | Fold increase in potency compared to 6C7H5 [4]: 0.7 fold | Receptor downregulation, (EC50) (pM) [4]: 60.3 pM

B5: anti-CD33 antibody 6C7H49 (antibody, V domains shown)
VH: EVQLVESGGGLVQPGGSLRLSCAASGFTFSEYDMLWVRQAPGKGLEWVGEIRLKSNNYVTNYAASVKGRFTISRDDSKNSVYLQMNSLKTEDTGVYYCTRAGYYVPFAYWGQGTLVTVSS
VL: QPVLTQSPSASASLGASVKLTCTLSSQHSTYTIEWYQQQPEKGPRYLMELKKEGSHSTGDGIPDRFSGSSSGAERYLTISSLQSEDEADYYCGVGVTIKEQFVYVFGGGTKLTVL
notes: VH/VL only
EC50 [1]: 0.3 nM | Fold increase in potency compared to 6C7H5 [4]: 0.6 fold | Receptor downregulation, (EC50) (pM) [4]: 69.7 pM

B6: anti-CD33 antibody 6C7H38 (antibody, V domains shown)
VH: EVQLVESGGGLVQPGGSLRLSCAASGFTFSEYAMLWVRQAPGKGLEWVGEIRLKSNNYVTNYAASVKGRFTISRDDSKNSVYLQMNSLKTEDTGVYYCTRAGYYVPFTYWGQGTLVTVSS
VL: QPMLTQSPSASASLGASVKLTCTLSSQHSTYTIEWYQQQPGKGPRYLMELKKEGSHSTGDGIPDRFSGSSSGAERYLTISSLQSEDEADYYCGVGLTIKEQFVYVFGGGTKLTVL
notes: VH/VL only
EC50 [1]: 0.21 nM | EC50 [5]: 4.87 nM | Relative maximal binding (cyno/human) [5]: 0.36 | Relative potency (human/cyno) [5]: 0.04 | Fold increase in potency compared to 6C7H5 [4]: 1.6 fold | Receptor downregulation, (EC50) (pM) [4]: 27 pM

B7: anti-CD33 antibody 6C7H40 (antibody, V domains shown)
VH: EVQLVESGGGLVQPGGSLRLSCAASGFTFSEYDMLWVRQAPGKGLEWVGEIRLKSNNYVTNYAASVKGRFTISRDDTKNSVYLQMNSLKTEDTGVYYCTRAGYYVPFAYWGQGTLVTVSS
VL: QLMLTQSPSASASLGASVKLTCTLSSQHSTYTIEWYQQQPGKGPRYLMELKKEGSHSTGDGIPDRFSGSSSGAERYLTISSLQSEDEADYYCGVGHTIKEQFVYEFGGGTKLTVL
notes: VH/VL only
EC50 [1]: 0.19 nM | Fold increase in potency compared to 6C7H5 [4]: 1.1 fold | Receptor downregulation, (EC50) (pM) [4]: 37.2 pM

B8: anti-CD33 antibody 6C7H36 (antibody, V domains shown)
VH: EVQLVESGGGLVQPGGSLRLSCAASGFTFSEYAMLWVRQAPGKGLEWVGEIRLKSNNYVTNYAASVKGRFTISRDDSKNSVYLQMNSLKTEDTGVYYCTRAGYYVPFTYWGQGTLVTVSS
VL: QLMLTQSPSASASLGASVKLTCTLSSQHSTYTIEWYQQQPGKGPRYLMELKKEGSHSTGDGIPDRFSGSSSGAERYLTISSLQSEDEADYYCGVGHTIKEQFVYEFGGGTKLTVL
notes: VH/VL only
EC50 [1]: 0.13 nM | EC50 [5]: 4 nM | Relative maximal binding (cyno/human) [5]: 0.34 | Relative potency (human/cyno) [5]: 0.03 | Fold increase in potency compared to 6C7H5 [4]: 0.9 fold | Receptor downregulation, (EC50) (pM) [4]: 49.1 pM

B9: anti-CD33 antibody 6C7H37 (antibody, V domains shown)
VH: EVQLVESGGGLVQPGGSLRLSCAASGFTFSEYAMLWVRQAPGKGLEWVGEIRLKSNNYVTNYAASVKGRFTISRDDSKNSVYLQMNSLKTEDTGVYYCTRAGYYVPFTYWGQGTLVTVSS
VL: QLMLTQSPSASASLGASVKLTCTLSSQHSTYTIEWYQQQPGKGPRYLMELKKEGSHSTGDGIPDRFSGSSSGAERYLTISSLQSEDEADYYCGVGHTIKEQFVYVFGGGTKLTVL
notes: VH/VL only
EC50 [1]: 0.26 nM | EC50 [5]: 5.62 nM | Relative maximal binding (cyno/human) [5]: 0.45 | Relative potency (human/cyno) [5]: 0.05 | Fold increase in potency compared to 6C7H5 [4]: 0.7 fold | Receptor downregulation, (EC50) (pM) [4]: 59.3 pM

B10: anti-CD33 antibody 6C7H31 (antibody, V domains shown)
VH: EVQLVESGGGLVQPGGSLRLSCAASGSTFSEYDMLWVRQAPGKGLEWVGEIRLKSNNYVTNYAASVKGRFTISRDDSKNSVYLQMNSLKTEDTGVYYCTRAGYYVPFAYWGQGTLVTVSS
VL: QPVLTQSPSASASLGASVKLTCTLSSQHSTYTIEWYQQQPEKGPRYLMELKKEGSHSTGDGIPDRFSGSSSGAERYLTISSLQSEDEADYYCGVGVTIKEQFVYVFGGGTKLTVL
notes: VH/VL only
EC50 [1]: 0.21 nM | Fold increase in potency compared to 6C7H5 [4]: 0.6 fold | Receptor downregulation, (EC50) (pM) [4]: 67.7 pM

B11: anti-CD33 antibody 6C7H41 (antibody, V domains shown)
VH: EVQLVESGGGLVQPGGSLRLSCAASGFTFSEYDMLWVRQAPGKGLEWVGEIRLKSNNYVTNYAASVKGRFTISRDDTKNSVYLQMNSLKTEDTGVYYCTRAGYYVPFAYWGQGTLVTVSS
VL: QLMLTQSPSASASLGASVKLTCTLSSQHSTYTIEWYQQQPGKGPRYLMELKKEGSHSTGDGIPDRFSGSSSGAERYLTISSLQSEDEADYYCGVGHTIKEQFVYVFGGGTKLTVL
notes: VH/VL only
EC50 [1]: 0.23 nM | Fold increase in potency compared to 6C7H5 [4]: 1.2 fold | Receptor downregulation, (EC50) (pM) [4]: 34.2 pM

B12: anti-CD33 antibody 6C7H39 (antibody, V domains shown)
VH: EVQLVESGGGLVQPGGSLRLSCAASGFTFSEYDMLWVRQAPGKGLEWVGEIRLKSNNYVTNYAASVKGRFTISRDDTKNSVYLQMNSLKTEDTGVYYCTRAGYYVPFAYWGQGTLVTVSS
VL: QPVLTQSPSASASLGASVKLTCTLSSQHSTYTIEWYQQQPEKGPRYLMELKKEGSHSTGDGIPDRFSGSSSGAERYLTISSLQSEDEADYYCGVGVTIKEQFVYVFGGGTKLTVL
notes: VH/VL only
EC50 [1]: 0.23 nM | Fold increase in potency compared to 6C7H5 [4]: 1.1 fold | Receptor downregulation, (EC50) (pM) [4]: 38.7 pM

B13: anti-CD33 antibody 6C7H33 (antibody, V domains shown)
VH: EVQLVESGGGLVQPGGSLRLSCAASGSTFSEYDMLWVRQAPGKGLEWVGEIRLKSNNYVTNYAASVKGRFTISRDDSKNSVYLQMNSLKTEDTGVYYCTRAGYYVPFAYWGQGTLVTVSS
VL: QLMLTQSPSASASLGASVKLTCTLSSQHSTYTIEWYQQQPGKGPRYLMELKKEGSHSTGDGIPDRFSGSSSGAERYLTISSLQSEDEADYYCGVGHTIKEQFVYVFGGGTKLTVL
notes: VH/VL only
EC50 [1]: 0.17 nM | Fold increase in potency compared to 6C7H5 [4]: 0.8 fold | Receptor downregulation, (EC50) (pM) [4]: 50 pM

B14: anti-CD33 6C7 chimeric antibody (antibody, V domains shown)
VH: EVKLEESGGGLVQPGGSMKLSCVGSGFTFSNYCMNWVRQSPEKGLEWVAEIRLKSNNYVTNYVESVKGRFTISRDDSKSRVYLQMNNLRGEDTGFYYCTRDGYYVPFAYWGQGTLVTVSA
VL: QLVLTQSSSASFSLGASAKLTCTLSSQHSTYTIEWYQQQPLKPPKYVMELKKDGSHSTGDGIPDRFSGSSSGADRYLSISNIQPEDEAIYICGVGDTIKEQFVYVFGGGTKVTVL
notes: detected with anti-human IgG; also called 6C7 Chimeric Ab
EC50 [5]: 2.96 nM | Relative maximal binding (cyno/human) [5]: 0.47 | Relative potency (human/cyno) [5]: 0.06
